Patent publication US20230210962A1, “CONDITIONING REGIMEN FOR TRANSPLANT” (Hansa Biopharma AB, priority 2020, published 2023)

Key:
[1] = target: Rabbit anti-thymocyte globulin (rATG) (rabbit); assay: cell-based or functional assay; conditions: scale: of 11 subjects with intact rATG remaining
[2] = test system: B6.CD45.2 donor bone marrow cells; assay: Short-term survival of donor BMC in sensitized recipients; type: in vivo, NOD mice; conditions: T cell-depleted NOD, enzyme 4 h prior to BMT, four hours post-BMT
Source text: FIG. 2. EndoS-imlifidase reduces DSA-mediated killing of donor BMC in sensitized recipients. (A-C) Naive NOD mice were immunized with FVB splenocytes four weeks prior to the administration of EndoS-imlifidase. Sera were harvested prior to immunization, prior to and four hours after enzyme treatment. Representative histograms on the left are for DSA-IgG Fc (panel A), DSA-IgG1 Fc (panel B), DSA-IgG3 Fc (panel C) and DSA-IgG3 heavy chain (panel D) with sera at a 1:25 dilution. Mean fluorescence intensity (MFI) of DSA in the titrated sera is shown on the right. Mean±SEM are shown. Ratio paired t test was used to compare MFI of DSA before and after enzyme treatment at each serum dilution with *p<0.05, **p<0.01. (D) Schematic of the experiment shown in E-F. Naive NOD mice were immunized with B6.CD45.1 splenocytes four weeks prior to injection of T cell depleting mAbs. […] Splenocytes and bone marrow cells were analysed for the expression of MHC-I H-2K^b and CD45.2. […]
To determine the short-term survival of donor BMC in sensitized recipients, NOD mice that had been sensitized to B6.CD45.1 splenocytes were T cell-depleted (anti-CD4, 0.25 mg, anti-CD8, 0.25 mg, anti-CD90 0.3 mg, i.p.) two days prior to BMT and i.v. injected with EndoS and imlifidase 4 hours prior to BMT (80×10^6 B6.CD45.2 BMC via i.v. injection). Splenocytes and BMC were analyzed at 4 hours post BMC injection.

[3] = Imlifidase serum concentration in healthy subjects; type: in vivo, human; conditions: 0.25 mg/kg imlifidase, 96 hours
Method: (§1) FIG. 5. Mean imlifidase concentration vs. nominal time from dosing (N=15). Data BLQ are included in mean calculation as BLQ/2. SD indicated with bars. FIG. 6. In vitro cleavage of rATG by imlifidase over time. Columns indicate number of subjects with visible intact rATG on Western blot post-imlifidase (N=11).
(§2) The cleavage pattern of rATG was investigated with sera from healthy subjects (n=11) treated with 0.25 mg/kg imlifidase (EudraCT number: 2019-002770-31). Serum samples were incubated with a fixed, clinically relevant, concentration of 50 µg/mL rATG (commonly observed after a dose of 1.5 mg/kg), for 2 hours at 37° C. Serum samples were collected pre-imlifidase through 14 days post-imlifidase and were analyzed using SDS-PAGE and Western blot, developed with a goat anti-rabbit IgG, F(ab′)2 specific antibody to evaluate the cleavage of rATG. Imlifidase concentration was analyzed using a validated electroluminescence immunoassay based on MSD technology.

rATG = assay: In vitro cleavage of rATG by imlifidase in post-dose sera (SDS-PAGE and Western blot); type: biochemical, rabbit; conditions: sera 96 hours post-imlifidase, 50 µg/mL rATG, 2 hours at 37° C
Method: as §1, §2

plasma IgG-pool = conditions: humans, cited from earlier work
[4] = test system: anti-MHC-I H-2K^b mAb (mouse IgG2b) mediated killing of donor BMC; assay: In vivo EndoS mediated monoclonal DSA inhibition assay (NOD recipients); set-up: species or system NOD mice
Method: (§3) FIG. 1. EndoS inhibits monoclonal DSA mediated killing of donor bone marrow cells. Naive NOD (panel A-B) or B6.H-2^g7 (panel C-D) were given 30 µg EndoS and/or anti-H-2K^b mAb (10 µg or 100 µg) intravenously four hours prior to the infusion of a mixture of CFSE labeled NOD/CTV labeled B6 bone marrow cells (BMC; panel A-B) or CFSE labeled B6.H-2^g7/CTV labeled NOD.H-2^b BMC (panel C-D). Shown are experiment protocols for NOD (panel A) and B6.H-2^g7 (panel C). Shown are the ratios of dye labeled B6 to NOD cells (panel B) or NOD.H-2^b to B6.H-2^g7 cells (panel D) in the blood (left panels) collected one to three hours after bone marrow transplant (BMT), in host spleens (middle panels) and bone marrow (BM, right panels) collected at four hours after BMT. Mean±SEM are shown. Data were pooled from five (panel B) and four (panel D) independent experiments. Mann-Whitney U test (middle and right panels) was used for the comparisons shown; *p<0.05 and **p<0.01.
NOD or B6.H-2^g7 mice were i.v. injected with vehicle, anti-MHC-I H-2K^b (10 µg) alone, or a mixture of EndoS (30 µg) and anti-MHC-I H-2K^b (10 µg or 100 µg) as a pretreatment. EndoS and anti-H-2K^b were mixed right before injection. Four hours after this pretreatment, five million cells of a 1:1 mixture of carboxyfluorescein succinimidyl ester (CFSE) labeled NOD and cell trace violet dye (CTV) labeled B6 bone marrow cells (BMC) were i.v. injected into the pre-treated NOD mice. Similarly, a 1:1 mixture of CFSE labeled B6.H-2^g7 and CTV labeled NOD.H-2^b BMC were injected into pre-treated B6.H-2^g7 mice. Blood was collected at 1, 2, and 3 hours post cell administration and analyzed by flow cytometry. Splenocytes and BMC from one hind limb were collected from each mouse and analyzed at four hours post BMC injection.
To evaluate the effect of EndoS on inhibiting the antibody-mediated killing of donor BMC, DSA passive transfer experiments were performed. Of all DSA, anti-donor MHC or HLA antibodies are of most importance in the clinic. Therefore, naïve NOD mice were injected with mouse IgG2b antibodies targeting MHC-I K^b expressing cells, treated with EndoS or left untreated, and thereafter subjected to bone marrow transfer from B6 mice.

[5] = test system: anti-MHC-I H-2K^b mAb (mouse IgG2b) mediated killing of donor BMC; assay: In vivo EndoS mediated monoclonal DSA inhibition assay (complement sufficient B6.H-2^g7 recipients); set-up: species or system B6.H-2^g7 mice; conditions: compared to NOD hosts
Method: as §3
NOD or B6.H-2^g7 mice were i.v. injected with vehicle, anti-MHC-I H-2K^b (10 µg) alone, or a mixture of EndoS (30 µg) and anti-MHC-I H-2K^b (10 µg or 100 µg) as a pretreatment. […] Blood was collected at 1, 2, and 3 hours post cell administration and analyzed by flow cytometry. Splenocytes and BMC from one hind limb were collected from each mouse and analyzed at four hours post BMC injection. […]

For “Imlifidase (IdeS, Immunoglobulin G-degrading enzyme of S. pyogenes)”, the cleavage of rATG in sera of imlifidase-treated subjects (SDS-PAGE and Western blot), 96 hours post-imlifidase [1] was 8.

B1: imlifidase: IdeS (Immunoglobulin G-degrading enzyme of S.pyogenes), IgG cysteine protease; mature sequence SEQ ID NO: 2 (protein)
chain: DSFSANQEIRYSEVTPYHVTSVWTKGVTPPANFTQGEDVFHAPYVANQGWYDITKTFNGKDDLLCGAATAGNMLHWWFDQNKDQIKRYLEEHPEKQKINFNGEQMFDVKEAIDTKNHQLDSKLFEYFKEKAFPYLSTKHLGVFPDHVIDMFINGYRLSLTNHGPTPVKEGSKDPRGGIFDAVFTRGDQSKLLTSRHDFKEKNLKEISDLIKKELTEGKALGLSHTYANVRINHVINLWGADFDSNGNLKAIYVTDSDSNASIGMKKYFVGVNSAGKVAISAKEIKEDNIGAQVLGLFTLSTGQDSWNQTN
modifications: Streptococcus pyogenes
For B1, the “B6.CD45.2 donor cells in BM” value [2] was 0.15%, the “B6.CD45.2 donor cells in spleen” value [2] was 0.46% and the “imlifidase serum concentration, individual variation” value [3] was less than 0.1 to 1.8 µg/mL. For the same molecule, the “imlifidase serum concentration, mean” value [3] was 0.5 µg/mL, the “subjects in which complete cleavage of rATG was avoided” value (rATG) was 8 of 11 and the “cleavage of the entire plasma IgG-pool” value (plasma IgG-pool; after dosing with IdeS) was “within minutes”. The “time IgG levels in blood remain low” value (plasma IgG-pool; until newly synthesized IgG appeared) was “more than a week”.

B2: EndoS: Endoglycosidase of S. pyogenes, IgG endoglycosidase; mature sequence SEQ ID NO: 90 (protein)
chain: EEKTVQVQKGLPSIDSLHYLSENSKKEFKEELSKAGQESQKVKEILAKAQQADKQAQELAKMKIPEKIPMKPLHGPLYGGYFRTWHDKTSDPTEKDKVNSMGELPKEVDLAFIFHDWTKDYSLFWKELATKHVPKLNKQGTRVIRTIPWRFLAGGDNSGIAEDTSKYPNTPEGNKALAKAIVDEYVYKYNLDGLDVDVEHDSIPKVDKKEDTAGVERSIQVFEEIGKLIGPKGVDKSRLFIMDSTYMADKNPLIERGAPYINLLLVQVYGSQGEKGGWEPVSNRPEKTMEERWQGYSKYIRPEQYMIGFSFYEENAQEGNLWYDINSRKDEDKANGINTDITGTRAERYARWQPKTGGVKGGIFSYAIDRDGVAHQPKKYAKQKEFKDATDNIFHSDYSVSKALKTVMLKDKSYDLIDEKDFPDKALREAVMAQVGTRKGDLERFNGTLRLDNPAIQSLEGLNKFKKLAQLDLIGLSRITKLDRSVLPANMKPGKDTLETVLETYKKDNKEEPATIPPVSLKVSGLTGLKELDLSGFDRETLAGLDAATLTSLEKVDISGNKLDLAPGTENRQIFDTMLSTISNHVGSNEQTVKFDKQKPTGHYPDTYGKTSLRLPVANEKVDLQSQLLFGTVTNQGTLINSEADYKAYQNHKIAGRSFVDSNYHYNNFKVSYENYTVKVTDSTLGTTTDKTLATDKEETYKVDFFSPADKTKAVHTAKVIVGDEKTMMVNLAEGATVIGGSADPVNARKVFDGQLGSETDNISLGWDSKQSIIFKLKEDGLIKHWRFFNDSARNPETTNKPIQEASLQIFNIKDYNLDNLLENPNKFDDEKYWITVDTYSAQGERATAFSNTLNNITSKYWRVVFDTKGDRYSSPVVPELQILGYPLPNADTIMKTVTTAKELSQQKDKFSQKMLDELKIKEMALETSLNSKIFDVTAINANAGVLKDCIEKRQLLKK
modifications: Streptococcus pyogenes
In the case of B2, the “ratio of B6 to NOD cells in blood” value ([4]; 30 µg EndoS i.v. with 10 µg anti-K^b mAb vs mAb alone, one hour post-BMT, stable at two and three hours) is reported as “significantly increased”, the “ratio of B6 to NOD cells in BM and spleen” value ([4]; EndoS with 10 µg anti-K^b mAb vs mAb only, four hours post-BMT) is reported as “significant increase” and the “ratio of B6 to NOD cells in blood” value ([4]; EndoS with 100 µg anti-K^b mAb vs mAb alone, one and two hours post-BMT) is reported as “increased ratio”. For the same molecule, the “ratio of B6 to NOD cells in blood” value ([4]; EndoS with 100 µg anti-K^b mAb, three hours post-BMT) was “did not last” and the “ratios of donor to recipient cells” value [5] was “improved”.
